± gives the uncertainty stated by the source.
B1: POU domain, class 5, transcription factor 1, residues 134 to 212; numbered along this chain, Q01860 (parent)
chain: EESQDIKALQKELEQFAKLLKQKRITLGYTQADVGLTLGVLFGKVFSQTTICRFEALQLSFKNMCKLRPLLQKWVEEAD

Variants of: B1
Test: abundance fitness (aPCA) (normalised: wild type 0, dead -1); higher = more abundant; growth selection in yeast, the domain comes from the species named
Details: Homo sapiens

Variant | abundance fitness
EESQDIKALQKELEQFAKLLKQKRITLGYTQADVGLTLGVLFKKVFSQTTICRFEALQLSFKNMCKLRPLLQKWVEEAD [G43K] | -0.516 ± 0.31
EESQDIKALQKELEQFAKLLKQKRITLGYTQADVTLTLGVLFGKVFSQTTICRFEALQLSFKNMCKLRPLLQKWVEEAD [G35T] | -0.697 ± 0.42
EESQDIKALQKELEQFAKLLKQKRITLGYTQADVGLTLGVLFGKVFSQTTICRFEALQLSFKNMCKLRTLLQKWVEEAD [P69T] | -0.652 ± 0.2
EESQDIKALQPELEQFAKLLKQKRITLGYTQADVGLTLGVLFGKVFSQTTICRFEALQLSFKNMCKLRPLLQKWVEEAD [K11P] | 0.23 ± 0.39
EESQDIKALQDELEQFAKLLKQKRITLGYTQADVGLTLGVLFGKVFSQTTICRFEALQLSFKNMCKLRPLLQKWVEEAD [K11D] | 0.168 ± 0.35
EESQDIKALQQELEQFAKLLKQKRITLGYTQADVGLTLGVLFGKVFSQTTICRFEALQLSFKNMCKLRPLLQKWVEEAD [K11Q] | 0.057 ± 0.17
EESQDIKALQKELEQFAKLLKQKRITLGYTQADVGLTLGVLFGKVFSQTTICRFEALQLSFKNMCKLRPLLQKWVEEPD [A78P] | -0.549 ± 0.23
EESQDIKALQKELEQFAKLLKQKRITLGYTQADVGLTLGVLFGKVFSQTTICRFEALQLSFKNMCKLRPCLQKWVEEAD [L70C] | -0.171 ± 0.29
EESQDAKALQKELEQFAKLLKQKRITLGYTQADVGLTLGVLFGKVFSQTTICRFEALQLSFKNMCKLRPLLQKWVEEAD [I6A] | 0.005 ± 0.085
EESQDIKALQKELEQFAALLKQKRITLGYTQADVGLTLGVLFGKVFSQTTICRFEALQLSFKNMCKLRPLLQKWVEEAD [K18A] | 0.021 ± 0.11
EESQDIKALQKELEQFAKLLKQKRITLGYTQADVGLTLGVLFGKVFSQTTICRFEALQLSFKNMCNLRPLLQKWVEEAD [K66N] | 0.209 ± 0.32
EESQDIKALQKELEQFAKLLKQKRITLGYTQADVGLTLGVLFGKVPSQTTICRFEALQLSFKNMCKLRPLLQKWVEEAD [F46P] | 0.029 ± 0.15
EESQDIKALQKELEQFAKLLKQKRITLGYTQADVGLTLGVLFGKVFSQTLICRFEALQLSFKNMCKLRPLLQKWVEEAD [T50L] | -0.626 ± 0.32
EESQDIKALQKELEQFAKLLKQKRITLGYTQADVGLTLGVLFGKVFSQTTICRFEALQLSFKNMCKLRPLDQKWVEEAD [L71D] | -0.869 ± 0.42
EESQDIKALQKELEQFAKLLKQKRITLGYTQADVGLTLGVLFGKVFSQTTICRFEALQLSFKNMCKLRPLYQKWVEEAD [L71Y] | -0.435 ± 0.28
EESQDIKALQKELEQFAKLLKQKRITLGYTQADVGLCLGVLFGKVFSQTTICRFEALQLSFKNMCKLRPLLQKWVEEAD [T37C] | -0.733 ± 0.34
EESQDIKALQKELEQFAKLLKQKRITLGYTQADVGLRLGVLFGKVFSQTTICRFEALQLSFKNMCKLRPLLQKWVEEAD [T37R] | 0.339 ± 0.054
EESQDIKALQKELEQFAKLLKQKRITLGYTQADVGLTLGVLFGKVFSQTTICRFEALQLSFKNMCKLRPLLQKRVEEAD [W74R] | -0.734 ± 0.27

Variant | abundance fitness
EESQDIKALQKELEQFAKLLKQKRITLGYTQADVGLTLGVLFGKVFSQTTICRFECLQLSFKNMCKLRPLLQKWVEEAD [A56C] | -0.098 ± 0.19
EESQDILALQKELEQFAKLLKQKRITLGYTQADVGLTLGVLFGKVFSQTTICRFEALQLSFKNMCKLRPLLQKWVEEAD [K7L] | -0.073 ± 0.061
EESQDIKALQKELEQFAKLLKQKRITLGYTQADVGLTLGVLFGKHFSQTTICRFEALQLSFKNMCKLRPLLQKWVEEAD [V45H] | 0.013 ± 0.082
EESQDIKALQKELEQFAKLLKQKRITLGYTQADVGLTLGVLFGKVFSQTTIDRFEALQLSFKNMCKLRPLLQKWVEEAD [C52D] | 0.203 ± 0.3
EESQDIKALQKELEQFAKLLKQKRITLGYTQADVGLTLGVLFGKVFSQTTICRFEALQLQFKNMCKLRPLLQKWVEEAD [S60Q] | -0.415 ± 0.36
EESQDIKALQKELEQFAKLLKQKRITLGYTQADVGLTLGVLFGKVFSQTTICRGEALQLSFKNMCKLRPLLQKWVEEAD [F54G] | -0.695 ± 0.14
EESQDIKALQKELEQFAKLLKQKRITLGYTQADVGLTLGVLFGKVFSQTTICRFEALQLSFKNMCKMRPLLQKWVEEAD [L67M] | -0.052 ± 0.16
EESQDIKALQKELEQFAKLLKQKRITLHYTQADVGLTLGVLFGKVFSQTTICRFEALQLSFKNMCKLRPLLQKWVEEAD [G28H] | 0.386 ± 0.21
EESQDIKALQKELEQFAKLLKQKRITLGYTDADVGLTLGVLFGKVFSQTTICRFEALQLSFKNMCKLRPLLQKWVEEAD [Q31D] | -0.126 ± 0.33
EESQDIKALQKELEQFAKLLKQKRITLGYTLADVGLTLGVLFGKVFSQTTICRFEALQLSFKNMCKLRPLLQKWVEEAD [Q31L] | -0.093 ± 0.2
EESQDIKALQKELEQFAKLLKQKRITLGYTQADVGLTLGVLFGKVFSQTTICRFEALQLSFENMCKLRPLLQKWVEEAD [K62E] | 0.038 ± 0.15
EESQPIKALQKELEQFAKLLKQKRITLGYTQADVGLTLGVLFGKVFSQTTICRFEALQLSFKNMCKLRPLLQKWVEEAD [D5P] | 0.062 ± 0.42
EESQDIKQLQKELEQFAKLLKQKRITLGYTQADVGLTLGVLFGKVFSQTTICRFEALQLSFKNMCKLRPLLQKWVEEAD [A8Q] | 0.182 ± 0.3
EESQDIKGLQKELEQFAKLLKQKRITLGYTQADVGLTLGVLFGKVFSQTTICRFEALQLSFKNMCKLRPLLQKWVEEAD [A8G] | -0.148 ± 0.14
EESQDIKALQKELEQFAKLLKQKRITLGYTQADVGLTLGVLFGKVFSQTTTCRFEALQLSFKNMCKLRPLLQKWVEEAD [I51T] | -0.338 ± 0.28
EESQDIKALQKELQQFAKLLKQKRITLGYTQADVGLTLGVLFGKVFSQTTICRFEALQLSFKNMCKLRPLLQKWVEEAD [E14Q] | -0.05 ± 0.14
EESQDIKALQKELEQFAKLLKQKRITLGMTQADVGLTLGVLFGKVFSQTTICRFEALQLSFKNMCKLRPLLQKWVEEAD [Y29M] | 0.18 ± 0.12

Source: the Human Domainome abundance scans (Beltran et al. 2025)
